Key:
HeLa Kyoto [1] = test: solubility in G1/S (NP-40 vs SDS abundance) (log2 ratio); higher = more soluble; conditions: cell cycle stage: G1/S
HeLa Kyoto [2] = test: melting temperature (median over replicates), in situ; higher = more thermally stable
HeLa Kyoto [3] = test: solubility change mitosis vs G1/S (difference of NP-40 vs SDS log2 ratios) (log2 ratio difference); higher = more soluble in mitosis
HeLa Kyoto [4] = test: thermal stability score vs G1/S (z-score of summed log2 fold changes over temperatures); higher = more thermally stable than in G1/S
[5] = cell cycle stage: early G1 (4.5 h after nocodazole release)
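For melting temperature (median over replicates), in situ in this document: HeLa Kyoto cells synchronized by double thymidine or nocodazole block, proteins quantified by TMT10plex mass spectrometry, three independent biological replicates.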
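For solubility change mitosis vs G1/S (difference of NP-40 vs SDS log2 ratios) in this document: synchronized HeLa Kyoto cells (double thymidine block for G1/S, nocodazole release for mitosis), protein amounts in NP-40 versus SDS lysates quantified by mass spectrometry, three biological replicates.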
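For solubility in G1/S (NP-40 vs SDS abundance) in this document: HeLa Kyoto cells arrested at G1/S by double thymidine block, proteins quantified by TMT10plex mass spectrometry in mild NP-40 versus SDS extracts, three biological replicates.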
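For thermal stability score vs G1/S (z-score of summed log2 fold changes over temperatures) in this document: synchronized HeLa Kyoto cells, proteins quantified by TMT10plex mass spectrometry, three biological replicates, mitosis taken 0.5 h after nocodazole release, G1/S directly after double thymidine block.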

Row | Sequence | solubility in G1/S (log2) (HeLa Kyoto [1]) | melting temperature (HeLa Kyoto [2]; cell cycle stage: G1/S) [°C] | melting temperature (HeLa Kyoto [2]; cell cycle stage: mitosis) [°C] | solubility change mitosis (log2) (HeLa Kyoto [3]) | thermal stability score (HeLa Kyoto [4]; [5]) | thermal stability score (HeLa Kyoto [4]; cell cycle stage: mitosis)
1 | MDSAGQDINLNSPNKGLLSDSMTDVPVDTGVAARTPAVEGLTEAEEEELRAELTKVEEEIVTLRQVLAAKERHCGELKRRLGLSTLGELKQNLSRSWHDVQVSSAYVKTSEKLGEWNEKVTQSDLYKKTQETLSQAGQKTSAALSTVGSAISRKLGDMRNSATFKSFEDRVGTIKSKVVGDRENGSDNLPSSAGSGDKPLSDPAPF [TPD52L2] | 0.127 | 53 | 52.7 | 0.6 | -4.67 | -5.07
2 | MEESGYESVLCVKPDVHVYRIPPRATNRGYRAAEWQLDQPSWSGRLRITAKGQMAYIKLEDRTSGELFAQAPVDQFPGTAVESVTDSSRYFVIRIEDGNGRRAFIGIGFGDRGDAFDFNVALQDHFKWVKQQCEFAKQAQNPDQGPKLDLGFKEGQTIKLNIANMKKKEGAAGNPRVRPASTGGLSLLPPPPGGKTSTLIPPPGEQLAVGGSLVQPAVAPSSGGAPVPWPQPNPATADIWGDFTKSTGSTSSQTQPGTGWVQF [NECAP2] | 0.173 | 52.6 | 52 | -0.251 | -0.264 | -1.02
3 | MAGDVGGRSCTDSELLLHPELLSQEFLLLTLEQKNIAVETDVRVNKDSLTDLYVQHAIPLPQRDLPKNRWGKMMEKKREQHEIKNETKRSSTVDGLRKRPLIVFDGSSTSTSIKVKKTENGDNDRLKPPPQASFTSNAFRKLSNSSSSVSPLILSSNLPVNNKTEHNNNDAKQNHDLTHRKSPSGPVKSPPLSPVGTTPVKLKRAAPKEEAEAMNNLKPPQAKRKIQHVTWP [C2ORF49] | 0.348 | 50.3 | 51.3 | 0.015 | -1.3 | -1.02
4 | MATLPAEPSAGPAAGGEAVAAAAATEEEEEEARQLLQTLQAAEGEAAAAAGAGAGAAAAGAEGPGSPGVPGSPPEAASEPPTGLRFSPEQVACVCEALLQAGHAGRLSRFLGALPPAERLRGSDPVLRARALVAFQRGEYAELYRLLESRPFPAAHHAFLQDLYLRARYHEAERARGRALGAVDKYRLRKKFPLPKTIWDGEETVYCFKERSRAALKACYRGNRYPTPDEKRRLATLTGLSLTQVSNWFKNRRQRDRTGAGGGAPCKSESDGNPTTEDESSRSPEDLERGAAPVSAEAAAQGSIFLAGTGPPAPCPASSSILVNGSFLAASGSPAVLLNGGPVIINGLALGEASSLGPLLLTGGGGAPPPQPSPQGASETKTSLVLDPQTGEVRLEEAQSEAPETKGAQVAAPGPALGEEVLGPLAQVVPGPPTAATFPLPPGPVPAVAAPQVVPLSPPPGYPTGLSPTSPLLNLPQVVPTSQVVTLPQAVGPLQLLAAGPGSPVKVAAAAGPANVHLINSGVGVTALQLPSATAPGNFLLANPVSGSPIVTGVALQQGKIILTATFPTSMLVSQVLPPAPGLALPLKPETAISVPEGGLPVAPSPALPEAHALGTLSAQQPPPAAATTSSTSLPFSPDSPGLLPNFPAPPPEGLMLSPAAVPVWSAGLELSAGTEGLLEAEKGLGTQAPHTVLRLPDPDPEGLLLGATAGGEVDEGLEAEAKVLTQLQSVPVEEPLEL [SIX5] | -0.308 | – | 50.7 | 0.346 | 0.121 | 0.872
5 | MDDDDFGGFEAAETFDGGSGETQTTSPAIPWAAFPAVSGVHLSPSSPEIVLDRDHSSSIGCLSSDAIISSPENTHAANSIVSQTIPKAQIQQSTHTHLDISLFPLGLTDEKSNGTIALVDDSEDPGANVSNIQLQQKISSLEIKLKVSEEEKQRIKQDVESLMEKHNVLEKGFLKEKEQEAISFQDRYKELQEKHKQELEDMRKAGHEALSIIVDEYKALLQSSVKQQVEAIEKQYISAIEKQAHKCEELLNAQHQRLLEMLDTEKELLKEKIKEALIQQSQEQKEILEKCLEEERQRNKEALVSAAKLEKEAVKDAVLKVVEEERKNLEKAHAEERELWKTEHAKDQEKVSQEIQKAIQEQRKISQETVKAAIIEEQKRSEKAVEEAVKRTRDELIEYIKEQKRLDQVIRQRSLSSLELFLSCAQKQLSALIATEPVDIE [CCDC91] | 0.348 | 53 | 52.1 | -0.0653 | -0.397 | -0.35
6 | MLMLFVFGVLLHEVSLSGQNEAPPNTHSIPGEPLYNYASIRLPEEHIPFFLHNNRHIATVCRKDSLCPYKKHLEKLKYCWGYEKSCKPEFRFGYPVCSYVDMGWTDTLESAEDIFWKQADFGYARERLEEMHVLCQPKETSDSSLVCSRYLQYCRATNLYLDLRNIKRNHDRFKEDFFQSGEIGGHCKLDIRTLTSEGQRKSPLQSWFAELQSYTQLNFRPIEDAKCDIVIEKPTYFMKLDAGVNMYHHFCDFINLYITQHVNNSFSTDVYIVMWDTSSYGYGDLFSDTWNAFTDYDVIHLKTYDSKRVCFKEAVFSLLPRMRYGLFYNTPLISGCQNTGLFRAFAQHVLHRLNITQEGPKDGKIRVTILARSTEYRKILNQNELVNALKTVSTFEVQIVDYKYRELGFLDQLRITHNTDIFIGMHGAGLTHLLFLPDWAAVFELYNCEDERCYLDLARLRGVHYITWRRQNKVFPQDKGHHPTLGEHPKFTNYSFDVEEFMYLVLQAADHVLQHPKWPFKKKHDEL [EOGT] | -0.298 | 53.3 | 54.9 | -0.00851 | 2.26 | 3.42
